No end group written: not given here.
Columns and labels:
POW-E-D3 = molecular target: T1, POW-E-D3 (Powassan virus, UniProt Q04538 579-674)
T1 sequence: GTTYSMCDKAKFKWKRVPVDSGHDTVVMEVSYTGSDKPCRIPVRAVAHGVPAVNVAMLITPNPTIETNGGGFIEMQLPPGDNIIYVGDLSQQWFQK

LGT virus = molecular target: T2, LGT virus (Langat virus, UniProt P29837 281-776); assay: cell-based or functional assay
T2 sequence: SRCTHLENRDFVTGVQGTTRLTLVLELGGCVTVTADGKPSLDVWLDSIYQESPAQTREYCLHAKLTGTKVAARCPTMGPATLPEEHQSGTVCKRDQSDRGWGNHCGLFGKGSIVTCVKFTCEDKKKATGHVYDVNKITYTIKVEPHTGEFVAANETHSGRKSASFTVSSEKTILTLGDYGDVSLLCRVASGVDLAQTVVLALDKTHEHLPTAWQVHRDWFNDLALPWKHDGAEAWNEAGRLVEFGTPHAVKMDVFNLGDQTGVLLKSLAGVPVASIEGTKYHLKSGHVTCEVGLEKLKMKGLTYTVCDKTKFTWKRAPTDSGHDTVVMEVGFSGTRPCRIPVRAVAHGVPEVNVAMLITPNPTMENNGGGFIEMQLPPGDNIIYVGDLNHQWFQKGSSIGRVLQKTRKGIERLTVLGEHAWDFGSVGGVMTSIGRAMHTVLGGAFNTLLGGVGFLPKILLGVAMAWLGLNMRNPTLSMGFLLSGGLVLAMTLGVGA

## RCCHPQCKEGKKCR (designed binder, not fully specified; cysteine pairing not given here) [MP-100]
POW-E-D3
  level of enrichment (ratio of enriched signal/library signal): > 1.5 ratio of enriched signal/library signal
LGT virus
  reduction of viral titer in Vero cells at 24 hpi: ~300 fold
  reduction of viral titer in Vero cells at 36 hpi: ~100 fold

Source: patent US20040002582A1 (University of Texas, published 2004)
